# Results as given in patent US20220306765A1 (SUZHOU TRANSCENTA THERAPEUTICS, published 2022).
# Like-named read-outs stand apart in the source and are kept apart here.
# B1: 59A9-C (antibody, human IgG1, V domains shown)
# VH: QITQKESGPGILQPSQTLSLTCSLSGFSLSTYFIGVGWIRQPSGKGLEWLAHIWWNDNKYYNTALKSRLTISKDTSNNQVFLKIASVDTADTATYYCARMGSGAWFTYWGQGTLVTVSA
# VL: DIVMTQSPSSLTVTAGEKVTMSCKSSQSLLNSGNQKNYLTWYQQKPGQPPKLLIYWASTRESGVPDRFTGSGSGTDFTLTISSVQAEDLAVYYCQNDYYYPLTFGSGTKLEIK
# notes: also called chimeric 59A9
# What was measured:
# Assay in all cases: FACS, transfected HEK293, 10 µg/ml antibody
# human CLDN18.2-mRFP L69I = human CLDN18.2-mRFP L69I (human)
# Description: (§1) The transfected HEK293-CLDN18.2 or HEK293-CLDN18.1 cell were resuspended in PBS with 2% BSA at density of 10\hat{ }5/well, 100 μl/well. […] Next, cells were washed 3 times by FACS washing buffer and incubated with 100 μl/well goat anti-hIgG (H+L)-FITC (1:200 dilution) at 4° C. for another 30 min. Finally, cells were washed 3 times by FACS washing buffer and analyzed by Flow Cytometry. To analyze binding to CLDN18.2 transfected cells, the RFP positive cells were used for control gating.
# human CLDN18.2-mRFP A42S = human CLDN18.2-mRFP A42S (human)
# Description: as §1
# human CLDN18.2-mRFP Q47E = human CLDN18.2-mRFP Q47E (human)
# Description: as §1
# human CLDN18.2-mRFP E56Q = human CLDN18.2-mRFP E56Q (human)
# Description: as §1
# human CLDN18.2-mRFP Q29M = human CLDN18.2-mRFP Q29M (human)
# Description: as §1
# human CLDN18.2-mRFP G65P = human CLDN18.2-mRFP G65P (human)
# Description: as §1
# human CLDN18.2-mRFP N45Q = human CLDN18.2-mRFP N45Q (human)
# Description: as §1
# human CLDN18.2-mRFP N37D = human CLDN18.2-mRFP N37D (human)
# Description: as §1
# [1] = biological target: T1, human CLDN18.2-mRFP1, wild-type (human)
# T1 construct: human CLDN18.2 (amino acid 1-261) fused to mRFP1 (amino acid 1-225), transiently expressed in HEK293 cells; also called wild-type human CLDN18.2-mRFP
# Description: as §1
# human CLDN18.2-mRFP Y36A = human CLDN18.2-mRFP Y36A (human)
# Description: as §1
# (§2) Subsequently, these plasmids of mutants and wild-type CLDN18.2-mRFP were transfected into HEK293 cell.
# human CLDN18.2-mRFP S52A = human CLDN18.2-mRFP S52A (human)
# Description: as §1, §2
# human CLDN18.2-mRFP Q33A = human CLDN18.2-mRFP Q33A (human)
# Description: as §1, §2
# human CLDN18.2-mRFP V40A = human CLDN18.2-mRFP V40A (human)
# Description: as §1, §2
# human CLDN18.2-mRFP R51A = human CLDN18.2-mRFP R51A (human)
# Description: as §1, §2
# human CLDN18.2-mRFP T61A = human CLDN18.2-mRFP T61A (human)
# Description: as §1, §2
# human CLDN18.2-mRFP E62A = human CLDN18.2-mRFP E62A (human)
# Description: as §1, §2
# [2] = biological target: T1, human CLDN18.2-mRFP1, wild-type; remark: listed apart in the source
# Description: as §1, §2
# Sequence of human CLDN18.2-mRFP N37D (human) (chain, as listed by the source N37D N37D limits assumed): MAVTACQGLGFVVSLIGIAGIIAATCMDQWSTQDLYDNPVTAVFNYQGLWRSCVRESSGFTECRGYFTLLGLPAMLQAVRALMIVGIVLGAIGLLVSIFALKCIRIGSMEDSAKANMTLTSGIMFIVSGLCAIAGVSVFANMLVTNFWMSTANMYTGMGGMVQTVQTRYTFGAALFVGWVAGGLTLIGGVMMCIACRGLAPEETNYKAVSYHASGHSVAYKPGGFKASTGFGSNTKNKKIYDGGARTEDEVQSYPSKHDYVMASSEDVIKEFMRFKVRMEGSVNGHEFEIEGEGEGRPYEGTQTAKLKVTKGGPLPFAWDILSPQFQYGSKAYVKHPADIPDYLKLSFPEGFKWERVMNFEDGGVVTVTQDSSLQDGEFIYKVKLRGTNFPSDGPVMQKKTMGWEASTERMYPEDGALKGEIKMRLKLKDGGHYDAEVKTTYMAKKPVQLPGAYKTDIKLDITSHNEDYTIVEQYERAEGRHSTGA
# Sequence of human CLDN18.2-mRFP Q47E (human) (chain, as listed by the source Q47E Q47E limits assumed): as the sequence (chain, as listed by the source N37D N37D limits assumed) above, with D37N, Q47E counted along it
# Sequence of human CLDN18.2-mRFP G65P (human) (chain, as listed by the source G65P G65P limits assumed): as the sequence (chain, as listed by the source N37D N37D limits assumed) above, with D37N, G65P counted along it
# Sequence of human CLDN18.2-mRFP L69I (human) (chain, as listed by the source L69I L69I limits assumed): as the sequence (chain, as listed by the source N37D N37D limits assumed) above, with D37N, L69I counted along it
# Sequence of human CLDN18.2-mRFP V40A (human) (chain, as listed by the source V40A V40A limits assumed): as the sequence (chain, as listed by the source N37D N37D limits assumed) above, with D37N, V40A counted along it
# Sequence of human CLDN18.2-mRFP Q29M (human) (chain, as listed by the source Q29M Q29M limits assumed): as the sequence (chain, as listed by the source N37D N37D limits assumed) above, with Q29M, D37N counted along it
# Sequence of human CLDN18.2-mRFP Q33A (human) (chain, as listed by the source Q33A Q33A limits assumed): as the sequence (chain, as listed by the source N37D N37D limits assumed) above, with Q33A, D37N counted along it
# Sequence of human CLDN18.2-mRFP E56Q (human) (chain, as listed by the source E56Q E56Q limits assumed): as the sequence (chain, as listed by the source N37D N37D limits assumed) above, with D37N, E56Q counted along it
# Sequence of human CLDN18.2-mRFP N45Q (human) (chain, as listed by the source N45Q N45Q limits assumed): as the sequence (chain, as listed by the source N37D N37D limits assumed) above, with D37N, N45Q counted along it
# Sequence of human CLDN18.2-mRFP R51A (human) (chain, as listed by the source R51A R51A limits assumed): as the sequence (chain, as listed by the source N37D N37D limits assumed) above, with D37N, R51A counted along it
# Sequence of human CLDN18.2-mRFP A42S (human) (chain, as listed by the source A42S A42S limits assumed): as the sequence (chain, as listed by the source N37D N37D limits assumed) above, with D37N, A42S counted along it
# Sequence of human CLDN18.2-mRFP S52A (human) (chain, as listed by the source S52A S52A limits assumed): as the sequence (chain, as listed by the source N37D N37D limits assumed) above, with D37N, S52A counted along it
# Sequence of human CLDN18.2-mRFP E62A (human) (chain, as listed by the source E62A E62A limits assumed): as the sequence (chain, as listed by the source N37D N37D limits assumed) above, with D37N, E62A counted along it
# Sequence of human CLDN18.2-mRFP Y36A (human) (chain, as listed by the source Y36A Y36A limits assumed): as the sequence (chain, as listed by the source N37D N37D limits assumed) above, with Y36A, D37N counted along it
# Sequence of human CLDN18.2-mRFP T61A (human) (chain, as listed by the source T61A T61A limits assumed): as the sequence (chain, as listed by the source N37D N37D limits assumed) above, with D37N, T61A counted along it
binder,measurement,setting,value
B1,binding percentage vs wild-type CLDN18.2,human CLDN18.2-mRFP L69I,106%
same,binding percentage vs wild-type CLDN18.2,human CLDN18.2-mRFP A42S,90%
same,binding percentage vs wild-type CLDN18.2,human CLDN18.2-mRFP Q47E,87.5%
same,binding percentage vs wild-type CLDN18.2,human CLDN18.2-mRFP E56Q,52.7%
same,binding percentage vs wild-type CLDN18.2,human CLDN18.2-mRFP Q29M,90.4%
same,binding percentage vs wild-type CLDN18.2,human CLDN18.2-mRFP G65P,85.5%
same,binding percentage vs wild-type CLDN18.2,human CLDN18.2-mRFP N45Q,65%
same,binding percentage vs wild-type CLDN18.2,human CLDN18.2-mRFP N37D,92.7%
same,binding percentage vs wild-type CLDN18.2,[1],100%
same,binding percentage vs wild-type CLDN18.2,human CLDN18.2-mRFP Y36A,78%
same,binding percentage vs wild-type CLDN18.2,human CLDN18.2-mRFP S52A,99%
same,binding percentage vs wild-type CLDN18.2,human CLDN18.2-mRFP Q33A,59.8%
same,binding percentage vs wild-type CLDN18.2,human CLDN18.2-mRFP V40A,128%
same,binding percentage vs wild-type CLDN18.2,human CLDN18.2-mRFP R51A,22.1%
same,binding percentage vs wild-type CLDN18.2,human CLDN18.2-mRFP T61A,51.6%
same,binding percentage vs wild-type CLDN18.2,human CLDN18.2-mRFP E62A,23.1%
same,binding percentage vs wild-type CLDN18.2,[2],100%
